From patent US20150344583A1 (Amgen, published 2015)

Experiments:
[1] = target: T1, cynomolgus (Macaca fascicularis) BCMA on cells (cynomolgus (Macaca fascicularis), UniProt Q02223 1-184 (human entry)); test: summary sentence of Example 16; assay for cynomolgus BCMA not given there
T1 construct: also called cyno BCMA; cynomolgus BCMA

[2] = target: T2, clipped form of Sumo-huBCMA, SEQ ID NO:357 (human); test: SEC and LC/MS
T2 chain: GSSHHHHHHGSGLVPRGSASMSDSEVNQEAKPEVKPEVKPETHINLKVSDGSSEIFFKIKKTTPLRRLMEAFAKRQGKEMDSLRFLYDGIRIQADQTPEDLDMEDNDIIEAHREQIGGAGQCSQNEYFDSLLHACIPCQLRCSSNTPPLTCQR

[3] = target: T3, clipped form of Sumo-huBCMA, SEQ ID NO:355 (human); test: SEC of antibody and Sumo-BCMA mixtures
T3 chain: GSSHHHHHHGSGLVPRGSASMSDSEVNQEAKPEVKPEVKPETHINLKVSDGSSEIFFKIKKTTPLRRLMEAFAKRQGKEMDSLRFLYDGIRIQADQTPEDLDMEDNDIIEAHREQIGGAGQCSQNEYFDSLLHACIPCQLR

[4] = target: T4, clipped form of Sumo-huBCMA, SEQ ID NO:356 (human); test: SEC of antibody and Sumo-BCMA mixtures
T4 construct: the species in the SEC peak came from the Sumo fusion, so it may carry the tag
T4 chain: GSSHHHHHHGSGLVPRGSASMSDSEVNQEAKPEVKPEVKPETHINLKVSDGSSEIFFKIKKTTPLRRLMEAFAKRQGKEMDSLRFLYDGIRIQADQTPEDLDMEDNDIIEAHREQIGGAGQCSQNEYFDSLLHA

[5] = target: T5, clipped form of Sumo-huBCMA, SEQ ID NO:354 (human); test: SEC of antibody and Sumo-BCMA mixtures
T5 construct: also called peak A
T5 chain: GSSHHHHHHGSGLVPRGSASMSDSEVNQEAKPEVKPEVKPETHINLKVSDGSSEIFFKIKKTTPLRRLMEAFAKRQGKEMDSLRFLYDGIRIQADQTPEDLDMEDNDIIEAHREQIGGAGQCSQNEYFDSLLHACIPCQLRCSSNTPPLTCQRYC

Measured: binding result

T1 sequence (Q02223 other isoform, or with tags, fused parts or gaps): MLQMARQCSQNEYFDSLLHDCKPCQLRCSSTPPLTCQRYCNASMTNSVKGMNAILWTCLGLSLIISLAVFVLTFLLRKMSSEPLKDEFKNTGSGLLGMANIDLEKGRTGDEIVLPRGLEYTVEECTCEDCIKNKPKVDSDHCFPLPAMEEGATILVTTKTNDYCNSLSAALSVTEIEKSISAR

B1: Ab-1 (2A1CV5) (antibody, human IgG1, lambda, V domains shown)
VH: EVQLVESGGGLVKPGGSLRLSCAASGFTFGDYALSWFRQAPGKGLEWVGVSRSKAYGGTTDYAASVKGRFTISRDDSKSTAYLQMNSLKTEDTAVYYCASSGYSSGWTPFDYWGQGTLVTVSS
VL: not shown
binds: [1] | [2] | [3] | [4] | [5]
